The assay deals with human dimeric IgA2 anti-NIP, wild type (not stated | human | mouse). As to the kind of experiment: rosetting assay.

B1: streptococcal IgA-binding M protein Arp4 (M4) (natural protein)
chain: AEIKKPQADSAWNWPKEYNALLKENEELKVEREKYLSYADDKEKDPQYRALMGENQDLRKREGQYQDKIEELEKERKEKQERQEQLERQYQIEADKHYQEQQKKHQQEQQQLEAEKQKLAKDKQISDASRQGLSRDLEASRAAKKELEAEHQKLKEEKQISDASRQGLSRDLEASREAKKKVEADLAALTAEHQKLKEDKQISDASRQGLSRDLEASREAKKKVEADLAEANSKLQALEKLNKELEEGKKLSEKEKAELQARLEAEAKALKEQLAKQAEELAKLKGNQTPNAKVAPQANRSRSAMTQQKRTLPST
B1 displayed a percent inhibition of dIgA binding to hFcα/μR (rosettes, Arp4 at 100 μg/mL) of 50%.
